Data on ten substances can be found in patent US20140113854A1.

Assay [1] deals with Human α-thrombin (human) (UniProt P00734). The assay is described as follows: inhibition of thrombin-catalysed hydrolysis of chromogenic substrate S-2238, 37 °C.
Assay [2] shares this target. The assay is described as follows: inhibition of thrombin by monovalent active-site moiety; conditions not given at the table.

What is called Ki is the equilibrium dissociation constant of an inhibitor or competing ligand from its target. A lower Ki goes with higher affinity. Turning to Bivalirudin (peptide), in the assay with Human α-thrombin (human) [1], the Ki was 2 nM. In other words, the single-digit nanomolar range.
On to H-dFPR (peptide), for which the Ki with Human α-thrombin (human) [2] was determined as 1570 nM.
In the assay with Human α-thrombin (human) [2], Dansyl-R-(d-Tic)-NH2 (peptide) displayed an inhibitory constant (Ki) of 860 nM.
As for Dansyl-R-(d-Pip)-Abu-NH2 (peptide), the Ki with Human α-thrombin (human) [2] amounted to 820 nM. This Ki and that of the substance before are within 1.5-fold of each other.
Still for that read-out and setting: under Bbs-R-(d-Pip)-G-NH2 (peptide) stands 2260 nM; under Boc-dFPR (peptide), 4380 nM; under Dansyl-R-(d-Pip)-NH2 (peptide), 370 nM.
The same measure, in the same setting: the same measure for Ac-dFPR (peptide): 170000 nM; for Bbs-R-(d-Pip)-NH2 (peptide): 1130 nM; for Bbs-R-(d-Pip)-W-NH2 (peptide): 6000 nM.
